{
  "source": "patent US20220023399A1",
  "about": "“BLOOD COMPONENT POTENTIATION OF LYTIC PROTEIN ANTI-BACTERIAL ACTIVITY AND METHODS AND USES THEREOF” (priority 2017, published 2022)",
  "assay_type_in_all_cases": "cell-based",
  "key": {"[1]": {"system": "S. aureus strain MW2", "experiment": "Transmission electron microscopy of lytic activity", "description": "FIG. 13 depicts TEM analysis of S. aureus strain MW2 treated with PlySs2 (CF-301) in either human serum (HuS) or MHB for 15 minutes.\nStaphylococci were treated with a range of PlySs2 (CF-301) concentrations for […] in either human serum or MHB before analysis by transmission electron microscopy (TEM). […] In addition to the more rapid bacteriolysis in serum, the lytic event was visually different in comparison to the event in MHB. In human serum, all bacteria are encased in a proteinaceous sheath presumably consisting of host proteins including HSA. […] In contrast, the lytic event in MHB appears as the classic cytoplasmic membrane bubbling and extrusion just prior to lysis.\nElectron Microscopy. Mid-log phase strain MW2 growing in either CAMHB or human serum (Sigma-Aldrich) was treated with the indicated concentrations of PlySs2 (CF-301) or buffer alone (control) at 37° C. for 15 minutes. The cells were then washed with 1× phosphate buffer (PB) and resuspended in a solution of 4% paraformaldehyde and 2% glutaraldehyde in 0.1 M cacodylate buffer (pH 7.4). The samples were post-fixed in 1% osmium tetroxide, block stained with uranyl acetate, and processed according to standard procedures by The Rockefeller University Electron Microscopy Service. Samples were visualized using a Tecnai™ Spirit BT Transmission Electron Microscope (FEI). […]"}, "[2]": {"system": "S. aureus JMI 1280 (MRSA)", "experiment": "Checkerboard assay, additional MRSA strains", "settings": "paired agent not given"}, "[3]": {"system": "S. aureus NRS 271 (MRSA, LRSA)", "experiment": "Checkerboard assay, additional MRSA strains", "settings": "paired agent not given"}, "[4]": {"system": "S. aureus NRS 100 (MRSA)", "experiment": "Checkerboard assay, additional MRSA strains", "settings": "paired agent not given"}, "[5]": {"settings": "medium head missing (human serum)"}},
  "data": [
    {"molecule": "PlySs2 (CF-301): antistaphylococcal lysin from a Streptococcus suis prophage; N-terminal CHAP domain, C-terminal SH3-type binding domain; SEQ ID NO:3 (protein, listed as Streptococcus suis) MTTVNEALNNVRAQVGSGVSVGNGECYALASWYERMISPDATVGLGAGVGWVSGAIGDTISAKNIGSSYNWQANGWTVSTSGPFKAGQIVTLGATPGNPYGHVVIVEAVDGDRLTILEQNYGGKRYPVRNYYSAASYRQQVVHYITPPGTVAQSAPNLAGSRSYRETGTMTVTVDALNVRRAPNTSGEIVAVYKRGESFDYDTVIIDVNGYVWVSYIGGSGKRNYVATGATKDGKRFGNAWGTFK", "values": [
      {"measurement": "concentration at which bacteriolytic activity was observed by TEM (only the highest tested)", "setting": "[1]; MHB", "result": 5, "unit": "µg/mL"},
      {"measurement": "bacteriolysis observed by TEM", "setting": "[1]; human serum, all concentrations over a 100-fold range", "result": "widespread evidence of lysis"},
      {"measurement": "ΣFICavg", "setting": "[2]; CAMHB", "result": 0.57},
      {"measurement": "ΣFICmin", "setting": "[2]; CAMHB", "result": 0.5},
      {"measurement": "ΣFICavg", "setting": "[2]; [5]", "result": 0.29},
      {"measurement": "ΣFICmin", "setting": "[2]; [5]", "result": 0.25},
      {"measurement": "ΣFICavg", "setting": "[3]; CAMHB", "result": 0.5},
      {"measurement": "ΣFICmin", "setting": "[3]; CAMHB", "result": 0.38},
      {"measurement": "ΣFICavg", "setting": "[3]; [5]", "result": 0.39},
      {"measurement": "ΣFICmin", "setting": "[3]; [5]", "result": 0.25},
      {"measurement": "ΣFICavg", "setting": "[4]; CAMHB", "result": 0.75},
      {"measurement": "ΣFICmin", "setting": "[4]; CAMHB", "result": 0.5},
      {"measurement": "ΣFICavg", "setting": "[4]; [5]", "result": 0.29},
      {"measurement": "ΣFICmin", "setting": "[4]; [5]", "result": 0.25}
    ]}
  ]
}
